The source of these data is publication PMC5626701, “Caspase-1 cleaves PPARγ for potentiating the pro-tumor action of TAMs” (Nature Communications, 2017).

For the experiment, the target named is T1, HA-tPPARγΔ64D (THP-1) (human, UniProt P37231-2 65-477).
T1 construct: also called truncated PPARγ; source: THP-1, transfected, in cell extract; not shown: HA, C-terminal, kept
T1 sequence (looked up): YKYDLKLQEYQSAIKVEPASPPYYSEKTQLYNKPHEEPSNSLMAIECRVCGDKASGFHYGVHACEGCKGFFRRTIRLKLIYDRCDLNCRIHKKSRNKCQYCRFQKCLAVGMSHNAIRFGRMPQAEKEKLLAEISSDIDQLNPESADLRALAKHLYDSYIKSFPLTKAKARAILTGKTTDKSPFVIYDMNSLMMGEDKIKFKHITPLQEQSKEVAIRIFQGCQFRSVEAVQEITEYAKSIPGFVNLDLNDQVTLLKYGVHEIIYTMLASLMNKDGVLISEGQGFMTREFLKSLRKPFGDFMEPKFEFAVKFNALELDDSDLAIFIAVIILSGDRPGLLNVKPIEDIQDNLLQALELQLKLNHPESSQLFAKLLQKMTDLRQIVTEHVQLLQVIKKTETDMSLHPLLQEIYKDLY
Briefly: co-IP; THP-1 cells transfected with HA-PPARγ or HA-tPPARγΔ64D; extracts precipitated with anti-HA and blotted with anti-MCAD, or precipitated with anti-MCAD and blotted with anti-HA; blots scanned. To be noted: partners not purified.

B1: medium-chain acyl-CoA dehydrogenase (MCAD), endogenous in THP-1 (enzyme, human (endogenous in THP-1), UniProt P11310 26-421, looked up)
chain: KANRQREPGLGFSFEFTEQQKEFQATARKFAREEIIPVAAEYDKTGEYPVPLIRRAWELGLMNTHIPENCGGLGLGTFDACLISEELAYGCTGVQTAIEGNSLGQMPIIIAGNDQQKKKYLGRMTEEPLMCAYCVTEPGAGSDVAGIKTKAEKKGDEYIINGQKMWITNGGKANWYFLLARSDPDPKAPANKAFTGFIVEADTPGIQIGRKELNMGQRCSDTRGIVFEDVKVPKENVLIGDGAGFKVAMGAFDKTRPVVAAGAVGLAQRALDEATKYALERKTFGKLLVEHQAISFMLAEMAMKVELARMSYQRAAWEVDSGRRNTYYASIAKAFAGDIANQLATDAVQILGGNGFNTEYPVEKLMRDAKIYQIYEGTSQIQRLIVAREHIDKYKN
notes: medium-chain acyl-CoA dehydrogenase (MCAD), mitochondrial; detected and precipitated with an anti-MCAD antibody; source: endogenous, THP-1 cell extract
As for B1, the “fold MCAD bound against full-length PPARγ” value is 8 fold.
